From article PMC6327041 (Nature Communications, 2019)

Molecular target: T1, KDM5A1-797 ΔPHD1 (Homo sapiens, UniProt P29375, DEL288-347/INS286GSGSGSG)
T1 construct: The KDM5A1-797 ΔPHD1 construct was generated after removing the residues Ser287-Lys347; His (N, cleaved yes); made in house; host or cells: Sf21 insect cells (baculovirus)
T1 sequence (P29375 with tags, fused parts or gaps INS286GSGSGSG/DEL288-347): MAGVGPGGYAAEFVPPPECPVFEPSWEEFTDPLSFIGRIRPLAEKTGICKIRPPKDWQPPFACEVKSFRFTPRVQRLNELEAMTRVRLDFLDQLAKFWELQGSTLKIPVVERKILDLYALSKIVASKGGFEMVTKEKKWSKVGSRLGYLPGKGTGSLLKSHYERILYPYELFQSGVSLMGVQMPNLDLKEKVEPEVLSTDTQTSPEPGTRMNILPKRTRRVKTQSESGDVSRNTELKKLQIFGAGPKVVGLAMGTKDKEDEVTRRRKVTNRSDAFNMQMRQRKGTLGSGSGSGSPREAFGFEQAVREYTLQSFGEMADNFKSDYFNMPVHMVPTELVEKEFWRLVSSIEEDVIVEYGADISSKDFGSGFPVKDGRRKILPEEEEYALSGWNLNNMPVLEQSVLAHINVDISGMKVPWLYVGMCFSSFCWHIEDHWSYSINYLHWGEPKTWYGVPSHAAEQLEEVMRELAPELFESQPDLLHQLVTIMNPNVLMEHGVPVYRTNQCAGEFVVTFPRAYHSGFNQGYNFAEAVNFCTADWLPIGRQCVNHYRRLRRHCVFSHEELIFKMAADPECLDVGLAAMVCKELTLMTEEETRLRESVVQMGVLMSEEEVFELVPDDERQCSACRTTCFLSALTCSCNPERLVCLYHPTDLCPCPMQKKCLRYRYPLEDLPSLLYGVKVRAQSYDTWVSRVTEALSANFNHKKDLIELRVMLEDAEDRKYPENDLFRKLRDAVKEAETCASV
Experiment: KDM5A ΔPHD1 demethylation, formaldehyde release assay
Assay type: biochemical
Protocol: The KDM5A1-797 ΔPHD1 construct was generated after removing the residues Ser287-Lys347 and replacing them with a (GS)4 linker before cloning into a pFASTBAC HTA vector. The protocol for expression and purification of the KDM5A1-797 ΔPHD1 construct was the same as WT.
Michaelis–Menten parameters were determined using Graphpad Prism.

[1] = KDM5A1-797 ΔPHD1, n ≥ 3, s.e.m.

kcat/Km (KDM5A1-797 ΔPHD1): 57.7 ± 13.7 M⁻¹ s⁻¹
Km [1]: 819 ± 133 µM
kcat [1]: 0.0472 ± 0.0035 s⁻¹
increase in Km on PHD1 deletion (ΔPHD1 vs WT KDM5A1-797): eightfold
Substance: Ac-H3K4me3 21mer: N-terminally acetylated 21mer H3K4me3 peptide, catalytic domain substrate
